Test results from doi:10.1101/2022.07.14.500127.

Columns and labels:
[1] = molecular target: Vip3Aa Domain I-Domain III truncation variant (Bacillus thuringiensis (Bt 9816C)); assay: SEC + other: protein thermal shift
[2] = molecular target: Vip3Aa protoxin (full-length vegetative insecticidal protein Vip3Aa) (Bacillus thuringiensis (Bt 9816C)); assay: SEC + other: dynamic light scattering
[3] = molecular target: trypsin-activated DI-DIII of Vip3Aa (DI-DIII^act) (Bacillus thuringiensis (Bt 9816C)); assay: SEC

“Vip3Aa Domain I-Domain III truncation variant (domain or fragment)” was tested. Which stoichiometry N [1] did it give?
Its stoichiometry N is 4.

How did the stoichiometry N [2] turn out when “Vip3Aa protoxin (full-length vegetative insecticidal protein Vip3Aa) (natural protein)” was run?
The stoichiometry N was 4.

For “trypsin-activated DI-DIII of Vip3Aa (DI-DIII^act) (complex)”, which stoichiometry N [3] is on record?
The stoichiometry N was 4.
